Assay results reported in US20220389118A1 (Chugai, published 2022).
Substitutions are numbered along the chain they refer to. Numbers in names are those of the source. Like-named read-outs stand apart in the source and are kept apart here. Values belong to the binder of their own block, whether it stands above or below them.

What was measured:
[1] = molecular target: T1, human FcγRIIa type R (R131) extracellular domain with C-terminal His tag (human, UniProt P12318 34-217); assay: SPR (Biacore), antibody captured, FcγR analyte
T1 construct: extracellular domain; also called FcγRIIaR; not shown: His tag at the C terminus
T1 sequence (looked up): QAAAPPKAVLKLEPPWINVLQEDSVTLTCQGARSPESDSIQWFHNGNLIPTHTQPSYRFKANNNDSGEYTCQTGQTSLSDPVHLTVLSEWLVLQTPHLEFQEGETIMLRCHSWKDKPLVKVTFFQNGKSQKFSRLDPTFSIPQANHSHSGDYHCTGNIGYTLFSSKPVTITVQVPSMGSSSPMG

[2] = molecular target: T2, human FcγRIIb extracellular domain with C-terminal His tag (human, UniProt P31994 43-217); assay: SPR (Biacore), antibody captured, FcγR analyte
T2 construct: extracellular domain; not shown: His tag at the C terminus
T2 sequence (looked up): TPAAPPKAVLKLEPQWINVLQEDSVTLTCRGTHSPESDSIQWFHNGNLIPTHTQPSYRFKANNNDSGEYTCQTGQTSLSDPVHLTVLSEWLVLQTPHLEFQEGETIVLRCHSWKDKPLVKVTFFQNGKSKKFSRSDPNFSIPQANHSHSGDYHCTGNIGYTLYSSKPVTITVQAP

[3] = molecular target: T3, human FcγRIa extracellular domain with C-terminal His tag (human, UniProt P12314 16-292); assay: SPR (Biacore), antibody captured, FcγR analyte
T3 construct: not shown: His tag at the C terminus
T3 sequence (P12314 16-292): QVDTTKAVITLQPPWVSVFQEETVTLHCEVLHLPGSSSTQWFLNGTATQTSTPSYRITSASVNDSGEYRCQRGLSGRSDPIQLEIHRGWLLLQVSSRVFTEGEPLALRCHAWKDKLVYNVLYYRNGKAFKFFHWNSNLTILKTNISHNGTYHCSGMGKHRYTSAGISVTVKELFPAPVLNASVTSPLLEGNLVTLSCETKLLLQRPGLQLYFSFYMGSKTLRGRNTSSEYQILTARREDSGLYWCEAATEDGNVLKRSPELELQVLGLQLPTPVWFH

[4] = molecular target: T4, human FcγRIIa type H (allotype H131) extracellular domain with C-terminal His tag (human, UniProt P12318 34-217); assay: SPR (Biacore), antibody captured, FcγR analyte
T4 construct: extracellular domain; also called FcγRIIaH; FcγRIIa H type; not shown: His tag at the C terminus
T4 sequence (looked up): T1 sequence (looked up) with R134H

[5] = molecular target: T5, human FcγRIIa type R extracellular domain with C-terminal His tag (human, UniProt P12318 34-217); assay: SPR, Ref. Ex. 25
T5 construct: extracellular domain; also called FcγRIIaR; FcγRIIa R
T5 sequence (looked up): T1 sequence (looked up)

[6] = molecular target: T6, human FcγRIIb extracellular domain with C-terminal His tag (human, UniProt P31994 43-217); assay: SPR, Ref. Ex. 25
T6 construct: extracellular domain; for crystals expressed with kifunensine and trimmed with Endo F1; also called FcγRIIb extracellular region
T6 sequence (looked up): T2 sequence (looked up)

[7] = molecular target: T7, human FcγRIIIa type V extracellular domain with C-terminal His tag (human, UniProt P08637 17-208); assay: SPR, Ref. Ex. 25
T7 construct: extracellular domain; also called FcγRIIIaV; FcγRIIIa V type

[8] = molecular target: T1, human FcγRIIa type R (R131) …; assay: SPR (Biacore), antibody captured, FcγR analyte; remark: listed apart in the source
[9] = molecular target: T8, human FcγRIIIa type V (allotype V158) extracellular domain with C-terminal His tag (human, UniProt P08637 17-208); assay: SPR (Biacore), antibody captured, FcγR analyte
T8 construct: extracellular domain; also called FcγRIIIaV; FcγRIIIa V type; not shown: His tag at the C terminus

[10] = molecular target: T9, human FcγRIIb extracellular domain with C-terminal His tag (human, UniProt P31994 43-217); assay: SPR (Biacore), antibody captured, FcγR analyte; remark: listed apart in the source
T9 construct: extracellular domain; not shown: His tag at the C terminus
T9 sequence (looked up): T2 sequence (looked up)

[11] = molecular target: T9, human FcγRIIb extracellular domain with …; assay: SPR (Biacore), antibody captured, FcγR analyte; remark: listed apart in the source
[12] = molecular target: T10, human FcγRIa extracellular domain with C-terminal His tag (human, UniProt P12314 16-292); assay: SPR (Biacore), antibody captured, FcγR as analyte
T10 construct: also called FcgRIa
T10 sequence (P12314 16-292): as above

[13] = molecular target: T11, human FcγRIIa type R extracellular domain with C-terminal His tag (human, UniProt P12318 34-217); assay: SPR (Biacore), antibody captured, FcγR as analyte
T11 construct: extracellular domain; also called FcγRIIaR; FcgRIIaR
T11 sequence (looked up): T1 sequence (looked up)

[14] = molecular target: T12, human FcγRIIb extracellular domain with C-terminal His tag (human, UniProt P31994 43-217); assay: SPR (Biacore), antibody captured, FcγR as analyte
T12 construct: extracellular domain; also called FcgRIIb
T12 sequence (looked up): T2 sequence (looked up)

T7 sequence (P08637 17-208 F176V): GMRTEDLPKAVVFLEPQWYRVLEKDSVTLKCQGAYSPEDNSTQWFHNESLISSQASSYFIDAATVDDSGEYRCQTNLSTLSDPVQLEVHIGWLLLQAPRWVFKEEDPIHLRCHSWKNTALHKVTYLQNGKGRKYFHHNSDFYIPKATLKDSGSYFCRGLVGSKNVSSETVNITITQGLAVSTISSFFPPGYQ
T8 sequence (P08637 17-208 F176V): as above

Kd [1]: 1 µM
B1: IL6R-BP475/IL6R-L (antibody, human IgG1, kappa)
heavy: QVQLQESGPGLVKPSETLSLTCAVSGHSISHDHAWSWVRQPPGEGLEWIGFISYSGITNYNPSLQGRVTISRDNSKNTLYLQMNSLRAEDTAVYYCARSLARTTAMDYWGEGTLVTVSSASTKGPSVFPLAPSSKSTSGGTAALGCLVKDYFPEPVTVSWNSGALTSGVHTFPAVLQSSGLYSLSSVVTVPSSSLGTQTYICNVNHKPSNTKVDKKVEPKSCDKTHTCPPCPAPDLLGDDSVFLFPPKPKDTLMISRTPEVTCVVVDVSDEDGEVKFNWYVDGVEVHNAKTKPREEQDNSTYRVVSVLTVLHQDWLNGKEYKCKVSNKGLPSPIEKTISKAKGQPREPQVYTLPPSRDELTKNQVSLTCLVKGFYPSDIAVEWESNGQPENNYKTTPPVLDSDGSFFLYSKLTVDKSRWQQGNVFSCSVMHEALHNHYTQESLSLSP
light: not shown
notes: A327G and A330S introduced into IL6R-BP230; copies: 2 + 2

Kd [2]: 0.1 µM
B2: IL6R-BP237/IL6R-L (antibody, human IgG1, kappa)
heavy: B1 heavy with L236Y, S269Q, K328A, G329A, S332K
light: not shown
notes: copies: 2 + 2

Kd [3]: 0.003 µM
Kd [4]: 6 µM
B3: IL6R-BP243/IL6R-L (antibody, human IgG1, kappa)
heavy: B1 heavy with L236Y, D298Y, G329A, S332R
light: not shown
notes: copies: 2 + 2

Kd [5]: 16 µM
Kd [6]: 2 µM
Kd [7]: 37 µM
B4: IL6R-PD042/IL6R-L (antibody, human IgG1, kappa)
heavy: QVQLQESGPGLVKPSETLSLTCAVSGHSISHDHAWSWVRQPPGEGLEWIGFISYSGITNYNPSLQGRVTISRDNSKNTLYLQMNSLRAEDTAVYYCARSLARTTAMDYWGEGTLVTVSSASTKGPSVFPLAPSSKSTSGGTAALGCLVKDYFPEPVTVSWNSGALTSGVHTFPAVLQSSGLYSLSSVVTVPSSSLGTQTYICNVNHKPSNTKVDKKVEPKSCDKTHTCPPCPAPEWLGGDSVFLFPPKPKDTLYISRTPEVTCVVVDVSHEDPEVKFNWYVDGVEVHNAKTKPREEQYNSTYRVVSVLTVLHQDWLNGKEYKCKVSNKALPAPIEKTISKAKGQPREPQVYTLPPSRDELTKNQVSLTCLVKGFYPSDIAVEWESNGQPENNYKTTPPVLDSDGSFFLYSKLTVDKSRWQQGNVFSCSVMHEALHYHYTQKSLSLSP
light: not shown
notes: also called P238D/L234W; L234W/P238D; copies: 2 + 2

Kd [8]: 3 µM
B5: IL6R-BP520/IL6R-L (antibody, human IgG1, kappa)
heavy: B1 heavy with D270E, E274M, D298Y, G329A, S332A
light: not shown
notes: E272M introduced into IL6R-BP267; copies: 2 + 2

Kd [9]: 40 µM
B6: IL6R-BP231/IL6R-L (antibody, human IgG1, kappa)
heavy: B1 heavy with D235E, G329A, S332R
light: not shown
notes: copies: 2 + 2

Kd [1]: 0.8 µM
B7: IL6R-BP471/IL6R-L (antibody, human IgG1, kappa)
heavy: B1 heavy with G329A, S332R, P333S
light: not shown
notes: P331S introduced into IL6R-BP230; copies: 2 + 2

Kd [5]: 21 µM
Kd [6]: 2 µM
Kd [7]: 43 µM
B8: IL6R-PD080/IL6R-L (antibody, human IgG1, kappa)
heavy: B4 heavy with W236L, G239D
light: not shown
notes: also called P238D/G237D; G237D/P238D; copies: 2 + 2

Kd [10]: 0.004 µM
B9: IL6R-BP464/IL6R-L (antibody, human IgG1, kappa)
heavy: B1 heavy with S269A, D270E, D298Y, G329A, S332R, P398Y
light: not shown
notes: P396Y introduced into IL6R-BP423; copies: 2 + 2

Kd [2]: 0.06 µM
B10: IL6R-BP239/IL6R-L (antibody, human IgG1, kappa)
heavy: B1 heavy with L236Y, S269Q, K328A, G329A, S332R
light: not shown
notes: copies: 2 + 2

Kd [8]: 2.1 µM
B11: IL6R-BP517/IL6R-L (antibody, human IgG1, kappa)
heavy: B1 heavy with D270E, E274I, D298Y, G329A, S332A
light: not shown
notes: E272I introduced into IL6R-BP267; copies: 2 + 2

Kd [11]: 0.1 µM
B12: IL6R-BP350/IL6R-L (antibody, human IgG1, kappa)
heavy: B1 heavy with S269E, D270E, D298Y, G329A, S332A
light: not shown
notes: S267E introduced into IL6R-BP267; copies: 2 + 2

Kd [11]: 0.1 µM
B13: IL6R-BP367/IL6R-L (antibody, human IgG1, kappa)
heavy: B1 heavy with D270E, E271D, D298Y, G329A, S332A
light: not shown
notes: E269D introduced into IL6R-BP267; copies: 2 + 2

Kd [12]: 0.007 µM
Kd [13]: 9.9 µM
KD(IIb) of parent polypeptide/KD(IIb) of altered polypeptide [14]: 2.7 fold vs IL6R-B3/IL6R-L
B14: IL6R-BP119/IL6R-L (antibody, human IgG1, kappa)
heavy: B4 heavy with W236L, Y254M, K328M, Y436N, K441E
light: not shown
notes: IgG1 type
